Where no end group is shown, it is not given here. The star is where a group is joined. NPEG4 = 4-unit NPEG linker joining two HWLKV peptides through their N-termini, carries the CPP on its nitrogen; Biotin = O=C1N[C@H]2[C@H](CS[C@H]2CCCCC(=O)*)N1
B1: N-terminally biotinylated TAT-P4-(C5)2 (peptide)
peptide 1: Biotin-YGRKKRRQRRR
peptide 2: HWLKV
modifications: not fully specified
notes: also called Biotin-TAT-P4-(C5)2
B2: MAP-P4-(C5)2 (peptide)
peptide 1: KLALKLALKALKAALKLA
peptide 2: HWLKV
modifications: not fully specified
notes: also called MAP-NPEG4-(HWLKV)2; MAP-peptide
B3: TAT11-PEG4-(DATC5)2 (peptide)
peptide 1: YGRKKRRQRRR
peptide 2: NPEG4-HWLKV
modifications: not fully specified (C-terminus)
notes: Branched compound: two HWLKV peptides joined through their N-termini by a 4-unit NPEG linker that carries the CPP; also called TAT-P4-(C5)2
B4: PNT-P4-(C5)2 (peptide)
peptide 1: RQIKIWFQNRRMKWKK
peptide 2: HWLKV
modifications: not fully specified
notes: Branched compound as TAT-P4-(C5)2, with Penetratin as CPP; also called Pent-P4-(C5)2; PNT-peptide
B5: TAMRA-YGRKKRRQRRR-PEG4-(HWLKV)2 (peptide)
peptide 1: YGRKKRRQRRR
peptide 2: HWLKV
modifications: not fully specified; N-terminus linked to the NPEG4 linker that joins the two copies; TAMRA on the N-terminus of the TAT sequence; conjugated to the NPEG4 linker
notes: also called TMR-TAT-P4-(C5)2; TMR-TAT11-P4-(C5)2

What was measured:
GFP-PICK1 A87L [1] = target: T1, GFP-PICK1 A87L (UniProt Q9EP80 1-416); test: pull-down from HEK293 cells
T1 construct: also called PDZ deficient mutant GFP-PICK1 A87L; not shown: GFP tag
T1 sequence (Q9EP80 whole entry A87L): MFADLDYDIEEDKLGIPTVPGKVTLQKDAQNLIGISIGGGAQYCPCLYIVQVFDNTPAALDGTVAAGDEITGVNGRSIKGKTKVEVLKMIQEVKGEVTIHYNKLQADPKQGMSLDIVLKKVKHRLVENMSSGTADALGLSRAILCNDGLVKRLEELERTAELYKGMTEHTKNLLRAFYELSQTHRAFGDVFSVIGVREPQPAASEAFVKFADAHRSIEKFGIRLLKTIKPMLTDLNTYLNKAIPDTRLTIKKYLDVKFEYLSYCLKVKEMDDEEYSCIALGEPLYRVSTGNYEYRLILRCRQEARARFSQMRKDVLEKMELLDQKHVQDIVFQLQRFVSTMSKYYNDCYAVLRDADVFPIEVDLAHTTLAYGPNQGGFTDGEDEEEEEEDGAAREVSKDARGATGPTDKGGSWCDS

[2] = target: T2, PICK1 (endogenous, mouse spinal cord) (mouse, UniProt Q62083 1-416); test: pull-down from mouse spinal cord after intrathecal administration
T2 construct: also called PICK1 protein
T2 sequence (Q62083 whole entry): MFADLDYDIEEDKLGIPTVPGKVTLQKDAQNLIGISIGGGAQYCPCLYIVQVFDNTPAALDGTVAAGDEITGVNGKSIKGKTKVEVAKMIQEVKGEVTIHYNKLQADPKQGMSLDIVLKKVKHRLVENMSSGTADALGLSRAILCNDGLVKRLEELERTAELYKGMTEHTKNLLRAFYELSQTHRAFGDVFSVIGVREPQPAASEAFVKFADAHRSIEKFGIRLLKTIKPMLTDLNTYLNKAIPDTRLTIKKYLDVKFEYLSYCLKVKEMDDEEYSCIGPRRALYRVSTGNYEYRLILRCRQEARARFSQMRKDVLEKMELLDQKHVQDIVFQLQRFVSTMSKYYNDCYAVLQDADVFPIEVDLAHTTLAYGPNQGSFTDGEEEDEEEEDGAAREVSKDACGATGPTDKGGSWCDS

[3] = target: T3, Protein Interacting with C Kinase-1 (PICK1), purified recombinant (UniProt Q9EP80 1-416); test: fluorescence polarization competition, tracer 5-FAM-TAT-C5
T3 construct: also called purified PICK1
T3 sequence (Q9EP80 whole entry): as the sequence (Q9EP80 whole entry A87L) above, with L87A counted along it

[4] = target: T3, Protein Interacting with C Kinase-1 …; test: fluorescence polarization competition, tracer 5FAM-TAT-(C5)
GFP-PICK1 A87L [5] = target: T1, GFP-PICK1 A87L; test: colocalization in heterologous cells

Binder	Fold affinity change (against TAT-P4-(C5)2) [3]	Ki [3]	also measured
B1	–	–	binding result (GFP-PICK1 A87L [1]): no binding; binding result [2]: binds
B2	0.8 fold	5.1 nM	–
B3	1 fold	4 nM	fold shift in affinity [4]: 301 fold
B4	1.7 fold	–	–
B5	–	–	binding result (GFP-PICK1 A87L [5]): no binding

From patent US20210347821A1 (published 2021)
